Source: patent publication US20220288193A1

Columns and labels:
[1] = molecular target: antigen X (known antigen used as control in the ELISA of Table 1); test: indirect ELISA, positive control: antigen X coated, anti-X-IgY applied, row A
[2] = molecular target: antigen X (known antigen used as control in the ELISA of Table 1); test: indirect ELISA, positive control: antigen X coated, anti-X-IgY applied, row B

“anti-X-IgY (control IgY against antigen X) (antibody)” showed an OD [1] of 1.33 OD and an OD [2] of 1.43 OD.
